These results are taken from PMC314469, “Protein Interaction Networks by Proteome Peptide Scanning” (PLoS Biology, 2004).

First the molecules themselves.
T1: Abp1 SH3 (ABP1_YEAST), P15891
T1 chain: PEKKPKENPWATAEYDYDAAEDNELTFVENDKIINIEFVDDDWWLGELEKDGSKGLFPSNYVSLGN

B1: YBR257W 10-23 (peptide)
chain: DSLFTKSLEDPEKP
B2: YMR244W 79-91 (peptide)
chain: SSYGSWSPYASKP
B3: YGL044C 219-231 (peptide)
chain: SKVDDLIPLASRP
B4: YCR077C 93-105 (peptide)
chain: DGTAAAGPLDLKP
B5: YDR464W 561-574 (peptide)
chain: DASSVELTEVPSKP
B6: YMR003W 182-194 (peptide)
chain: SLWWNLEPQESKP
B7: YKL103C 202-214 (peptide)
chain: SRIPSLAPHFGKP
B8: YLR299W 80-93 (peptide)
chain: DHHNIDIDPLPRRP
B9: YGL197W 684-696 (peptide)
chain: DEEDDEDPVSPKP
B10: YIL031W 418-430 (peptide)
chain: ATTEFETPELFKP
B11: YGR013W 516-529 (peptide)
chain: DEGYRESELPPTKP
B12: YEL007W 23-36 (peptide)
chain: ATLDGKLKHIPRRP
B13: YLR335W 584-596 (peptide)
chain: ATKVDATPEESKP
B14: YAR033W 173-185 (peptide)
chain: ATSIGNSPVTAKP
B15: YMR153W 198-210 (peptide)
chain: DGKPTATPSPFRP
B16: YER090W 132-144 (peptide)
chain: DSVRYFEPKTRRP
B17: YPL100W 257-269 (peptide)
chain: SFTAYSSPKKNKP
B18: YDR096W 741-753 (peptide)
chain: DAGPSFSPLHKKP
B19: YER047C 185-198 (peptide)
chain: DAENIRVNFVPSKP
B20: YPR121W 328-341 (peptide)
chain: DESFTASDAVPKKP
B21: YLR410W 340-352 (peptide)
chain: DGKTMTKPFVEKP
B22: YPL150W 616-628 (peptide)
chain: DGKVSPPPIRNRP
B23: YLR417W 380-392 (peptide)
chain: DESTVNEPKTRRP
B24: YPL100W 471-484 (peptide)
chain: DDGTFSIYSIPSKP
B25: YGR271W 1320-1332 (peptide)
chain: DHGLYNFPSSVRP
B26: YOL055C 307-320 (peptide)
chain: DESFTASDVIPKKP
B27: YOL125W 257-270 (peptide)
chain: DDFSEIKSNSPSKP
B28: YPR186C 218-230 (peptide)
chain: DHPKLKSPISSKP
B29: YDR407C 928-940 (peptide)
chain: SVRIIKLPTVIKP
B30: YPR068C 139-151 (peptide)
chain: SINNSEVPTNDKP
B31: YGL170C 266-278 (peptide)
chain: DFRNPLLPIDNRP
B32: YLR450W 583-596 (peptide)
chain: SVYALSSQDEPIRP
B33: YMR147W 118-131 (peptide)
chain: DENEKESRHYPIKP
B34: YER095W 332-344 (peptide)
chain: DGGMAFNPDPKKP
B35: YKL020C 937-950 (peptide)
chain: DELPKYEDLFPKKP
B36: YLR077W 535-547 (peptide)
chain: SAKPMNIPEVLKP
B37: YIL111W 69-82 (peptide)
chain: AWYISYGEWGPRRP
B38: YHR009C 132-144 (peptide)
chain: AYNLNVPPPKKRP
B39: YER027C 294-307 (peptide)
chain: DGYTRFHDETPAKP
B40: YJL041W 183-196 (peptide)
chain: ATTNDDKKTEPDKP
B41: YDR135C 180-193 (peptide)
chain: SASILLLEALPKKP
B42: YDR200C 169-182 (peptide)
chain: ATFETKFLVVPFKP
B43: YOR056C 307-319 (peptide)
chain: SFKIFPLPKDGKP
B44: YOL084W 269-281 (peptide)
chain: DDLETYVPHKKRP
B45: YOR066W 218-231 (peptide)
chain: SDTDTLPEAPPAKP
B46: YLR106C 2240-2252 (peptide)
chain: SSQEDGQPRVLKP
B47: YIL029C 115-127 (peptide)
chain: SSQGINVPGTKKP
B48: YOR175C 203-215 (peptide)
chain: SEMFRDLPESKKP
B49: YLR374C 54-66 (peptide)
chain: SHTKNTHPDFSKP
B50: YKL220C 443-456 (peptide)
chain: DDLIRLTVKKPARP
B51: YKL196C 76-89 (peptide)
chain: SGVLITDKEYPVRP
B52: YOR068C 68-80 (peptide)
chain: SSSSSGLPATDKP
B53: YLR281C 14-27 (peptide)
chain: AVLLIKKNKLPPRP
B54: YGR134W 1092-1104 (peptide)
chain: DGKILPLPKADKP

This test concerns the target T1, Abp1 SH3 (ABP1_YEAST), P15891. The experiment in a line: SPOT array.
Consider B1, for which the normalised SPOT signal, Boehringer light units (BLU); mean over the file's lines of this peptide was found to be 113.
In turn, B2 displayed a normalised SPOT signal, Boehringer light units (BLU); mean over the file's lines of this peptide of 46.2.
Take B3: the normalised SPOT signal, Boehringer light units (BLU); mean over the file's lines of this peptide came to 111.
Regarding B4, the normalised SPOT signal, Boehringer light units (BLU); mean over the file's lines of this peptide came to 47.1.
The value for B5 was 25.2; that for B6 was 68.
Molecule B7 registered a normalised SPOT signal, Boehringer light units (BLU); mean over the file's lines of this peptide of 99.3.
Take B8: the normalised SPOT signal, Boehringer light units (BLU); mean over the file's lines of this peptide came to 122.
In turn, B9 came in with a normalised SPOT signal, Boehringer light units (BLU); mean over the file's lines of this peptide of 90.3.
Under B10 stands 78.7; under B11, 62.8.
Under B12 stands 630.
In turn, B13 came in with a normalised SPOT signal, Boehringer light units (BLU); mean over the file's lines of this peptide of 103.
In turn, B14 registered a normalised SPOT signal, Boehringer light units (BLU); mean over the file's lines of this peptide of 71.
B15 displayed a normalised SPOT signal, Boehringer light units (BLU); mean over the file's lines of this peptide of 158.
Turning to B16, the normalised SPOT signal, Boehringer light units (BLU); mean over the file's lines of this peptide turned out to be 659.
In the case of B17, the normalised SPOT signal, Boehringer light units (BLU); mean over the file's lines of this peptide stood at 324.
As for B18, the normalised SPOT signal, Boehringer light units (BLU); mean over the file's lines of this peptide was determined as 231.
The value for B19 was 133.
The molecule B20 returned a normalised SPOT signal, Boehringer light units (BLU); mean over the file's lines of this peptide of 112.
The molecule B21 yielded a normalised SPOT signal, Boehringer light units (BLU); mean over the file's lines of this peptide of 171.
Turning to B22, the normalised SPOT signal, Boehringer light units (BLU); mean over the file's lines of this peptide is 6430.
B23: the normalised SPOT signal, Boehringer light units (BLU); mean over the file's lines of this peptide was 95.6.
Regarding B24, the normalised SPOT signal, Boehringer light units (BLU); mean over the file's lines of this peptide was determined as 169.
Turning to B25, the normalised SPOT signal, Boehringer light units (BLU); mean over the file's lines of this peptide was determined as 77.3.
Molecule B26 registered a normalised SPOT signal, Boehringer light units (BLU); mean over the file's lines of this peptide of 142.
Take B27: the normalised SPOT signal, Boehringer light units (BLU); mean over the file's lines of this peptide turned out to be 58.4.
With B28, the normalised SPOT signal, Boehringer light units (BLU); mean over the file's lines of this peptide amounted to 98.
As to B29, the normalised SPOT signal, Boehringer light units (BLU); mean over the file's lines of this peptide worked out at 175.
Take B30: the normalised SPOT signal, Boehringer light units (BLU); mean over the file's lines of this peptide is 72.1.
The value for B31 was 138.
In turn, B32 gave a normalised SPOT signal, Boehringer light units (BLU); mean over the file's lines of this peptide of 37.7.
The value for B33 was 104; that for B34 was 105; that for B35 was 132.
Molecule B36 gave a normalised SPOT signal, Boehringer light units (BLU); mean over the file's lines of this peptide of 144.
The value for B37 was 78.4; that for B38 was 1510; that for B39 was 101.
In turn, B40 had a normalised SPOT signal, Boehringer light units (BLU); mean over the file's lines of this peptide of 63.8.
On to B41, for which the normalised SPOT signal, Boehringer light units (BLU); mean over the file's lines of this peptide was 112.
Molecule B42 gave a normalised SPOT signal, Boehringer light units (BLU); mean over the file's lines of this peptide of 74.
The molecule B43 yielded a normalised SPOT signal, Boehringer light units (BLU); mean over the file's lines of this peptide of 102.
For the molecule B44, the normalised SPOT signal, Boehringer light units (BLU); mean over the file's lines of this peptide turned out to be 120.
In turn, B45 showed a normalised SPOT signal, Boehringer light units (BLU); mean over the file's lines of this peptide of 108.
The value for B46 was 118; that for B47 was 178.
B48: the normalised SPOT signal, Boehringer light units (BLU); mean over the file's lines of this peptide is 86.3.
In the case of B49, the normalised SPOT signal, Boehringer light units (BLU); mean over the file's lines of this peptide is 39.3.
Under B50 stands 446.
Consider B51, for which the normalised SPOT signal, Boehringer light units (BLU); mean over the file's lines of this peptide was found to be 56.
The molecule B52 had a normalised SPOT signal, Boehringer light units (BLU); mean over the file's lines of this peptide of 59.6.
Molecule B53 showed a normalised SPOT signal, Boehringer light units (BLU); mean over the file's lines of this peptide of 9430.
Regarding B54, the normalised SPOT signal, Boehringer light units (BLU); mean over the file's lines of this peptide came out at 18.9.
